Patent publication US10233249B2, “Antibodies and methods for treating estrogen receptor-associated diseases” (BEIJING SHENOGEN PHARMA GROUP LTD., priority 2013, dated 2019)
“Also recorded” adds a separate entry of the source.

Assays:
ER-α36 = biological target: T1, ER-α36 (Homo sapiens, UniProt P03372); experiment: Biacore binding affinity of chimeric and humanized antibodies (Example 9)
T1 sequence (P03372 284-310 isoform P03372-4): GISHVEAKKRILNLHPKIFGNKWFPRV
Description: The humanized antibodies were purified and characterized using ELISA and Biacore for binding analysis.
The humanized antibodies were tested for their binding affinity to ER-α36.

[1] = system: BCAP37 breast cancer xenograft; experiment: BCAP37 breast cancer xenograft model; assay type: in vivo; conditions: NOD-SCID mice, 1.25, 5 and 20 mg/kg SNGmB1, 3 mg/kg Herceptin, 17 days
Description: The ability of anti-ER-α36 antibody in inhibiting human tumor cell growth in Xenograft model was assessed using BCAP37 breast cancer model. […] The cells were implanted into NOD-SCID mice. […] After 17 days of treatment, the tumors were excised, and both tumor weight and volume were measured.

[2] = system: MCF7 mammosphere formation; experiment: Estradiol stimulated MCF7 mammosphere formation assay; assay type: cell-based, human
Description: The impact of antibody on the formation and growth of cells was evaluated by Estradiol stimulated MCF7 mammosphere formation assay.
MCF-7 (ATCC) maintained in DMEM medium containing 10% FBS (Gibco) have been passaged 2-3 times prior to assay and are 60% confluence. MCF-7 cells were washed with warm phenol red-free DMEM twice and then grew in phenol red-free DMEM with 2.5% charcoal stripped FBS (CFBS) for 48 hours. The cells were then trypsinized and passed through 40-μm filters to remove cell clumps, followed by stained with 7-AAD and 800 cells were plated into each well of ultra-low binding 24 well plates (Corning Inc.) in 800 μl mammosphere growth medium consisting of serum free DMEM-F12 (Gibco) supplemented with 5 μg/ml insulin, 0.4% bovine serum albumin (Sigma), B27 (Invitrogen), 20 ng/ml EGF and bFGF (BDBiosciences). For the evaluation of antibody activity, 1 nM estradiol in DMSO was added to each well to induce mammosphere formation after adding of antibodies.
MCF7 cells were grown in the presence of 1 nM estradiol and PBS, human IgG, mouse IgG2b, recombinant ER-α36 ligand binding domain Fc fusion protein, or SNGmB1. DMSO was used as negative control. After 72 hr treatment, the number of mammosphere in culture was counted. […]
The antibody activity was also evaluated in a longer term of 7 days by following methods: MCF7 mammosphere was prepared using same method described above. […]

Ka (ER-α36; listed as SNGmB1-20110709(IgG2b)): 2.12e+06 M⁻¹ s⁻¹ | Ka (ER-α36; listed as SNGmB1-20111117(IgG2b)): 1.76e+06 M⁻¹ s⁻¹
B1: SNGmB1: mouse monoclonal anti-ER-α36 antibody (mIgG2b), light chain SEQ ID NO: 16, heavy chain SEQ ID NO: 18 (antibody, listed as Mus musculus)
heavy: QAYLQQSGAELVRPGASVKMSCKASGYTFTSHNMHWIKQTPRQGLEWIGAIHPVNGDTAYNQKFKGKATLTVDKSSSTAYLQLSSLTSEESAVYFCAREGYGSVDYWGQGTTLTVSSAKTTPPSVYPLAPGCGDTTGSSVTLGCLVKGYFPESVTVTWNSGSLSSSVHTFPALLQSGLYTMSSSVTVPSSTWPSQTVTCSVAHPASSTTVDKKLEPSGPISTINPCPPCKECHKCPAPNLEGGPSVFIFPPNIKDVLMISLTPKVTCVVVDVSEDDPDVQISWFVNNVEVHTAQTQTHREDYNSTIRVVSTLPIQHQDWMSGKEFKCKVNNKDLPSPIERTISKIKGLVRAPQVYILPPPAEQLSRKDVSLTCLVVGFNPGDISVEWTSNGHTEENYKDTAPVLDSDGSYFIYSKLNMKTSKWEKTDSFSCNVRHEGLKNYYLKKTISRSPGK
light: ETTVTQSPASLSMTIGEKVTIRCITSTDIDDDMNWYRKKPGQPPKLLISEGNTLRPGVPSRFSSSGYGTDFVFTIENMLSEDVADYYCLQSDNLPLTFGAGTKLELKRADAAPTVSIFPPSSEQLTSGGASVVCFLNNFYPKDINVKWKIDGSERQNGVLNSWTDQDSKDSTYSMSSTLTLTKDEYERHNSYTCEATHKTSTSPIVKSFNRNEC
inhibition of tumor growth [1]: inhibit tumor growth in a dose-dependent manner; also recorded: inhibited tumor cell growth in a does-dependent manner | inhibition of estradiol stimulated MCF7 mammosphere formation ([2]; 1 nM estradiol, 72 hr treatment, compared with human IgG and mouse IgG2b): significantly inhibited; also recorded: can inhibit on MCF7 mammosphere formation and growth | inhibition of MCF7 mammosphere formation, longer term ([2]; 7 days, estradiol 100 μM or 3 nM, different antibody concentrations, compared with mIgG): better ability in inhibiting mammosphere formation compared with mIgG; also recorded: can inhibit on MCF7 mammosphere formation and growth at different concentrations
